Series [1] has as its system C.Esp1396I R46A (Enterobacter sp. RFL1396?). The series can be described thus: SPR. Conditions: SPR (Biacore T-100): 130 mM NaCl, 10 mM HEPES pH 7.4, 0.05% Tween-20; temperature not stated; 20-1000 nM total protein. A general note: Surface plasmon resonance follows binding to a sensor surface in real time, without labels.
For series [2], the system named is C.Esp1396I S52A (Enterobacter sp. RFL1396?). The series can be described thus: SPR. Particulars: SPR (Biacore T-100): 130 mM NaCl, 10 mM HEPES pH 7.4, 0.05% Tween-20; temperature not stated; 20-1000 nM total protein.
Series [3] relates to C.Esp1396I Y37A (Enterobacter sp. RFL1396?). The series can be described thus: SPR. Conditions: SPR (Biacore T-100): 130 mM NaCl, 10 mM HEPES pH 7.4, 0.05% Tween-20; temperature not stated; 20-1000 nM total protein.
The test system of series [4] is C.Esp1396I Y37F (Enterobacter sp. RFL1396?). The series can be described thus: SPR. Conditions: SPR (Biacore T-100): 130 mM NaCl, 10 mM HEPES pH 7.4, 0.05% Tween-20; temperature not stated; 20-1000 nM total protein.
The test system of series [5] is C.Esp1396I wild type (Enterobacter sp. RFL1396?). In words: SPR. Particulars: SPR (Biacore T-100): 130 mM NaCl, 10 mM HEPES pH 7.4, 0.05% Tween-20; temperature not stated; 20-1000 nM total protein.
Series [6] concerns the molecule itself. In words: crystal structure; free protein crystals, protein at 2-14 mg/mL, diffraction data at 100 K; dimer of the protein with itself.

The term Kd denotes the concentration at which binding is half-saturated. Read a low Kd as tighter binding.

On to OM operator duplex, for which the Kd amounted to 15.8 nM in series [1]; 2.6 nM in series [2]; 5.5 nM in series [3]; 1.8 nM in series [4]; 0.51 nM in series [5].

B1: C.Esp1396I wild type (RM controller protein) (natural protein)
chain: MESFLLSKVSFVIKKIRLEKGMTQEDLAYKSNLDRTYISGIERNSRNLTIKSLELIMKGLEVSDVVFFEMLIKEILKHD
notes: controller (C) protein C.Esp1396I of the Esp1396I restriction-modification system; Residues may be left at the N-terminus after thrombin cleavage; also called native protein; WT; not shown: His6, N-terminal, cleaved
B1: the binding result in series [6] is recorded as “binds”.

B2: C.Esp1396I Y37A mutant (natural protein)
chain: MESFLLSKVSFVIKKIRLEKGMTQEDLAYKSNLDRTAISGIERNSRNLTIKSLELIMKGLEVSDVVFFEMLIKEILKHD
notes: controller (C) protein C.Esp1396I with Y37A; Gene synthesised by GenScript; not shown: His6, N-terminal, cleaved
Regarding B2, in series [6], the binding result is given as “binds”.

B3: C.Esp1396I S52A mutant (natural protein)
chain: MESFLLSKVSFVIKKIRLEKGMTQEDLAYKSNLDRTYISGIERNSRNLTIKALELIMKGLEVSDVVFFEMLIKEILKHD
notes: controller (C) protein C.Esp1396I with S52A; Gene synthesised by GenScript; not shown: His6, N-terminal, cleaved
Take B3: the binding result in series [6] is on record as “binds”.

B4: C.Esp1396I T36A mutant (natural protein)
chain: MESFLLSKVSFVIKKIRLEKGMTQEDLAYKSNLDRAYISGIERNSRNLTIKSLELIMKGLEVSDVVFFEMLIKEILKHD
notes: controller (C) protein C.Esp1396I with T36A; not shown: His6, N-terminal, cleaved
With B4, the binding result in series [6] is recorded as “binds”.

B5: C.Esp1396I Y37F mutant (natural protein)
chain: MESFLLSKVSFVIKKIRLEKGMTQEDLAYKSNLDRTFISGIERNSRNLTIKSLELIMKGLEVSDVVFFEMLIKEILKHD
notes: controller (C) protein C.Esp1396I with Y37F; Gene synthesised by GenScript; not shown: His6, N-terminal, cleaved
Take B5: the binding result in series [6] is “binds”.

B6: C.Esp1396I R46A mutant (natural protein)
chain: MESFLLSKVSFVIKKIRLEKGMTQEDLAYKSNLDRTYISGIERNSANLTIKSLELIMKGLEVSDVVFFEMLIKEILKHD
notes: controller (C) protein C.Esp1396I with R46A; Crystallised in two space groups (C2 and P3(2)); not shown: His6, N-terminal, cleaved
For B6, the binding result in series [6] was “binds”.

(Values after paper PMC4041747, “Structural and Mutagenic Analysis of the RM Controller Protein C.Esp1396I” (PLoS ONE, 2014).)
